Results on 21 variants are retold here after the RNAGym collection of RNA variant scans (doi:10.1073/pnas.2313332121).

B1: TPR t1 (parent)
chain: GACCAAUCUGCCCUCAGAGCUCGAGAACAUCUUCGGAUGCAGAGGAGGCAGGCUUCGGUGGCGCGAUAGCGCCAACGUCCUCAACCUCCAAUGCAUCCCACCACAUGAUGAUGCCUGAAGAGCCUUGGUUUUUUG

Variants of B1 are the subject of this data set. Briefly: polymerase ribozyme fitness, log enrichment relative to wild type (log ratio); higher = more active; in vitro selection for triplet polymerase activity. In outline:
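The heterodimeric triplet polymerase ribozyme's subunits were each mutagenized into PCR-built libraries and transcribed. Every library was selected once, in triplicate, by annealing with a biotinylated primer, the partner subunit and triplets, incubating frozen at −7 °C, gel-excising extended constructs, capturing on streptavidin beads and running RT-PCR. Input and output libraries were Illumina-sequenced, with genotypes kept only at ≥10 input reads and ≥1 read per output. Fitness, from inverse-variance-weighted replicate averages, is the base-2 logarithm of genotype enrichment over wild-type enrichment.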
With GACCAAUCUGCCCUCAGAGCUCGAGAACAUCUUCGGAUGCAGAGGAGGCAGGCUUCGGUGGAGCGAUAGCGCCAACGUUCUCAACCUCCAAUGCAUCCCACCACAUGAUGAUGCCUGAAGAGCCUUGGUUUUUUG, the “polymerase ribozyme fitness (log ratio)” value is -0.345.

In the case of GACCAAUCUGCCCUCAGAGCUCGAGAACAUCUUCGGAUGCAGAGGAGGCAGGCUUCGGUGGAGCGAUAGCGCCAACGUACUCAACCUCCAAUGCAUCCCACCACAUGAUGAUGCCUGAAGAGCCUUGGUUUUUUG, the “polymerase ribozyme fitness (log ratio)” value was -3.89.

As for GACCAAUCUGCCCUCAGAGCUCGAGAACAUCUUCGGAUGCAGAGGAGGCAGGCUUCGGUGGAGCGAUAGCGCCAACGUCCUAAACCUCCAAUGCAUCCCACCACAUGAUGAUGCCUGAAGGGCCUUGGUUUUUUG, the “polymerase ribozyme fitness (log ratio)” value came out at 1.58.

GACCAAUCUGCCCUCAGAGCUCGAGAACAUCUUCGGAUGCAGAGGAGGCAGGCUUCGGUGUCGCGAUAGCGCCAACGUCCUCAACCUCCAACGCAUCCCACCACAUGAUGAUGCCUGAAGAGCCUUGGUUUUUUG: the “polymerase ribozyme fitness (log ratio)” value was -1.84.

For GACCAAUCUGCCCUCAGAGCUCGAGAACAUCUUCGGAUGCAGAGGAGGCAGGCUUCGGUGGAGCGAUAGCGCCAACGUCCUCAACCUCCAAUGCAUCCUACCACAUGAUGAUGCCUGAAGAGCAUUGGUUUUUUG, the “polymerase ribozyme fitness (log ratio)” value was -4.32.

In the case of GACCAAUCUGCCCUCAGAGCUCGAGAACAUCUUCGGAUGCAGAGGAGGCAGGCUUCGGUGUCGCGAUAGCGCCAACGUCCUCAACCUCCAAUGCAUCCCACCACAUGAUGAUGCCUGAAGAGCCUUGGCUUUUUG, the “polymerase ribozyme fitness (log ratio)” value was -0.253.

As for GACCAAUCUGCCCUCAGAGCUCGAGAACAUCUUCGGAUGCAGAGGAGGCAGGCUUCGGUGUCGCGAUAGCGCCAACGUCCUCAACCUCCAAUGCAUCCCACCACAUGAUGAUGCCUGAAGAGCCUUGGAUUUUUG, the “polymerase ribozyme fitness (log ratio)” value was -1.21.

Regarding GACCAAUCUGCCCUCAGAGCUCGAGAACAUCUUCGGAUGCAGAGGAGGCAGGCUUCGGUGGAGCGAUAGCGCCAACGUCCUCAACAUCCAAUGCAUCCCACCACAUGAUGAUGCCUGAAGAGCCUUGGUUUUUUG, the “polymerase ribozyme fitness (log ratio)” value was -2.26.

With GACCAAUCUGCCCUCAGAGCUCGAGAACAUCUUCGGAUGCAGAGGAGGCAGGCUUCGGUGGAGCGAUAGCGCCAACGUCCUCAACCUCCAAUGCAUCCCACCACAUGAUGAUCCCUGAAGAGCCUUGGUUUUUUG, the “polymerase ribozyme fitness (log ratio)” value was -3.31.

For GACCAAUCUGCCCUCAGAGCUCGAGAACAUCUUCGGAUGCAGAGGAGGCAGGCUUCGGUGUCGCGAUAGCGCCAACGUCCAUAACCUCCAAUGCAUCCCACCACAUGAUGAUGCCUGAGGAUCCAUGGCUUUUUG, the “polymerase ribozyme fitness (log ratio)” value was -1.8.

For the variant GACCAAUCUGCCCUCAGAGCUCGAGAACAUCUUCGGAUGCAGAGGAGGCAGGCUUCGGUGGAGCGAUAGCGCCAACGUCCUCAACCUCCAAUGCAUCCCACCACAUGAUGAUGCCUCAAGAGCCUUGGUUUUAUG, the “polymerase ribozyme fitness (log ratio)” value was -5.95.

As to GACCAAUCUGCCCUCAGAGCUCGAGAACAUCUUCGGAUGCAGAGGAGGCAGGCUUCGGUGGAGCGAUAGCGCCAACGUCCUCAACCUCCAAUGCAUCUCACCACAUGAUGAUGCCUGAAGAGCCUUGGUUUUUUG, the “polymerase ribozyme fitness (log ratio)” value was -2.2.

In the case of GACCAAUCUGCCCUCAGAGCUCGAGAACAUCUUCGGAUGCAGAGGAGGCAGGCUUCGGUGGAGCGAUAGCGCCAACGUCCUUAACCUCCAGUGCAUCCCAGCACAUGAUGAUGCCUGAAGAGUCUUGUUUUUUUG, the “polymerase ribozyme fitness (log ratio)” value is -3.86.

Consider GACCAAUCUGCCCUCAGAGCUCGAGAACAUCUUCGGAUGCAGAGGAGGCAGGCUUCGGUGGAGCGAUAGCGCCAACGUCCUGAACCUCCAAUGCAUCCCACCACAUGAUGAUGCCUAAAGAGCCUUGGUUUUUUG, for which the “polymerase ribozyme fitness (log ratio)” value was -3.75.

GACCAAUCUGCCCUCAGAGCUCGAGAACAUCUUCGGAUGCAGAGGAGGCAGGCUUCGGUGGAGCGAUAGCGUCAACGUCCUCAACCUCCAAUGCAUCCCACCACAUGAUGAUGCCUGAAGAGCCUUGGUUUUUUG: the “polymerase ribozyme fitness (log ratio)” value is -1.74.

Regarding GACCAAUCUGCCCUCAGAGCUCGAGAACAUCUUCGGAUGCAGAGGAGGCAGGCUUCGGUGGAGCGAUAGCGGCAACGUCCUCAACCUCCAAUGCAUCCCACCACAUGAUGAUGCCUGAAGAGCCUUGGUUUUUUG, the “polymerase ribozyme fitness (log ratio)” value was -2.09.

As for GACCAAUCUGCCCUCAGAGCUCGAGAACAUCUUCGGAUGCAGAGGAGGCAGGCUUCGGUGGAGCGAUAGCGCCAACGUCCUAAACCUCCAAUGCAUCCCACCACAUGAUGAUGCCUGAAGAGCCUUGGUUUUUUG, the “polymerase ribozyme fitness (log ratio)” value is -0.246.

In the case of GACCAAUCUGCCCUCAGAGCUCGAGAACAUCUUCGGAUGCAGAGGAGGCAGGCUUCGGUGUCGCGAUAGCGCCAACGUCCUCAACCUCCAAUGCAUCCCACCACAUGAUCAUGCCUGAAGAGCCUUGGUUUUUUG, the “polymerase ribozyme fitness (log ratio)” value is -2.85.

As to GACCAAUCUGCCCUCAGAGCUCGAGAACAUCUUCGGAUGCAGAGGAGGCAGGCUUCGGUGUCGCGAUAGCGCCAACGUCCUCAACCUCCAAUGCAUCCCACCACAUGAUUAUGCCUGAAGAGCCUUGGUUUUUUG, the “polymerase ribozyme fitness (log ratio)” value is -0.117.

As to GACCAAUCUGCCCUCAGAGCUCGAGAACAUCUUCGGAUGCAGAGGAGGCAGGCUUCGGUGUCGCGAUAGCGCCAACGUCCUCAACCUCCAAUGCAUCCCACCACAUGAUGAUGCCUGAAGAGCCUUGGUGUUUUG, the “polymerase ribozyme fitness (log ratio)” value was -0.614.

On to GACCAAUCUGCCCUCAGAGCUCGAGAACAUCUUCGGAUGCAGAGGAGGCAGGCUUCGGUGUCGCGAUAGCGCCAACGUCCUCAACCUCCAAUGCAUCCCACCACAUGAUGAUCCCUGAAGAGCCUUGGUUUUUUG, for which the “polymerase ribozyme fitness (log ratio)” value was -1.82.
